Laboratory results published in patent publication US20090155236A1, “Peptide sequence for modulation of delta protein kinase c” (NATIONAL INSTITUES OF HEALTH (NIH), U.S. DEPT OF HEALTH AND …, priority 2004, published 2009).

Legend:
[1] = molecular target: recombinant full-length delta PKC (rat); test: ELISA, presence of calcium
[2] = molecular target: recombinant full-length delta PKC (rat); test: ELISA, absence of calcium
[3] = molecular target: annexin V protein (human) (UniProt P08758); test: ELISA, annexin V immobilised, presence of calcium
[4] = molecular target: annexin V protein (human) (UniProt P08758); test: ELISA, annexin V immobilised, absence of calcium

annexin V protein (human), sequence (P08758 2-320 limits assumed): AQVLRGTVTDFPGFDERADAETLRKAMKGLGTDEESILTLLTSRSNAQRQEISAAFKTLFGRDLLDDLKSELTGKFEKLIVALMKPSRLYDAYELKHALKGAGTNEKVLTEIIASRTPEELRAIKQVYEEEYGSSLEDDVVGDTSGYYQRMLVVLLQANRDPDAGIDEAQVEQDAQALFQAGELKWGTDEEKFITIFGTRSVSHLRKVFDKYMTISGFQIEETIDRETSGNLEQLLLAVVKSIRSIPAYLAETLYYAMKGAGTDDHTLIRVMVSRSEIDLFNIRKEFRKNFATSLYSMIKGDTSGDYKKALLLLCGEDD

percent binding [1] [%] | percent binding [2] [%] | percent binding [3] [%] | percent binding [4] [%] | Substance
100 | 75 | – | – | annexin V protein (from UniProt P08758 2-320)
– | – | 100 | 55 | delta V1 PKC (from UniProt P09215 1-160)
